Results published in patent US5723299A, “Somatostatin receptors” (Arch Development Corporation, priority 1995, dated 1998).

Biological target: T1, hGPR81 (SSTR1) (Homo sapiens, UniProt P30872)
T1 construct: in vitro transcribed RNA injected into Xenopus laevis oocytes
Experiment: Ca^2+ efflux in oocytes injected with hGPR81 RNA
Format: cell-based
Details: laevis oocytes injected with in vitro transcribed RNA
Protocol: Since the presence of a short cytoplasmic loop connecting transmembrane segments M5-M6 is a feature of G protein-coupled receptors that bind peptide hormones and neuropeptides (E. M. Ross, 1990), peptides known to regulate hormone secretion from pancreatic islets were tested as ligands for hGPR81. Initial attempts to identify the ligand for hGPR81 by injecting RNA transcribed in vitro into fenopus laevis oocytes (Kayano et al., 1990) and assessing changes in basal or stimulated cAMP levels in response to […] [calcitonin-gene-related peptide, gastric inhibitory polypeptide, glucagon, glucagon-like peptide 1-(7-36 amide), and vasoactive intestinal peptide], or Ca^2+ efflux (Williams et al., 1988) (angiotensin II, bombesin, cholecystokinin, and vasopressin) were unsuccessful. The binding of radiolabeled peptides (galanin, glucagon and somatostatin) to COS-7 cells transiently expressing hGPR81 was attempted, as well.

T1 sequence (P30872 whole entry): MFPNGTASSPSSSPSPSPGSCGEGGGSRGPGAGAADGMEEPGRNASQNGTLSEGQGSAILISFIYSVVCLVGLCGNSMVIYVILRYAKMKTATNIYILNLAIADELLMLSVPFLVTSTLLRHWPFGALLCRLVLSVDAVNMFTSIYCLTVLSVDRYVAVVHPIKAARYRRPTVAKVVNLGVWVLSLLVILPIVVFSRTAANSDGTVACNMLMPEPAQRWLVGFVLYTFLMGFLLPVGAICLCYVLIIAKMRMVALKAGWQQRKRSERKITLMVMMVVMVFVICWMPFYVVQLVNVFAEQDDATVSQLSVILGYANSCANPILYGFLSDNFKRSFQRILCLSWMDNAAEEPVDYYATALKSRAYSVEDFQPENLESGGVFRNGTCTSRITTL

B1: cholecystokinin: peptide known to regulate hormone secretion from pancreatic islets (peptide, UniProt P06307 21-115, looked up)
Cholecystokinin: QPVPPADPAGSGLQRAEEAPRRQLRVSQRTDGESRAHLGALLARYIQQARKAPSGRMSIVKNLQNLDPSHRISDRDYMGWMDFGRRSAEEYEYPS
modifications: Cholecystokinin
notes: peptide known to regulate hormone secretion from pancreatic islets
  identification as ligand for hGPR81 by Ca^2+ efflux: unsuccessful
